Among the data in paper PMC12313985 are FRAP mobile fractions in PKA-Tau:14-3-3ζ condensates and Kd values, retold here.

Assay [1] addresses PKA-phosphorylated full-length human Tau (PKA-Tau) (human) (UniProt P10636).
In assay [2] the target is Fluorescein (FITC)-labelled bi-phospho Tau peptide pS2 (Tau^210–222-…-Tau^318–331) (human). Put plainly: fluorescence polarisation; 14-3-3ζ titrated (twofold series from 400 μM) into 10 nM fluorescein-labelled peptide; 10 mM HEPES pH 7.4, 150 mM NaCl, 50 µM TCEP, 0.1% Tween20, 0.1% BSA; room temperature; 4PL fit. For orientation: Fluorescence polarisation rises when a labelled molecule tumbles more slowly, as on binding a larger partner.
Fluorescein (FITC)-labelled bi-phospho Tau peptide pS2 (Tau^210–222-…-Tau^318–331) (human), sequence (peptide, as listed by the source): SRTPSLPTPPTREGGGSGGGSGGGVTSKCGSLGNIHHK

PKA-phosphorylated full-length human Tau (PKA-Tau) (human), sequence (P10636 other isoform, or with tags, fused parts or gaps): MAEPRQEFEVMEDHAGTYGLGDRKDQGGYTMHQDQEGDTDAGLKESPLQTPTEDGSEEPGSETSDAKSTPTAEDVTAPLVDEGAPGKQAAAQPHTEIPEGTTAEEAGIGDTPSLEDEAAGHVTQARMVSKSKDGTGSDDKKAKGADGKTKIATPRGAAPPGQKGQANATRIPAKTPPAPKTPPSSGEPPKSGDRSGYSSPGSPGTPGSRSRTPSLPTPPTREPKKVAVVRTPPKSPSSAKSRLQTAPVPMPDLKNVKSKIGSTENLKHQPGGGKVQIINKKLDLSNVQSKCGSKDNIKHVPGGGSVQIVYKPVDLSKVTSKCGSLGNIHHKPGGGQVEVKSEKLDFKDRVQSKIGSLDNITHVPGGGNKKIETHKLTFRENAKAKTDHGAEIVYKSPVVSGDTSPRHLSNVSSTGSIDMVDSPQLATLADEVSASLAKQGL

“14-3-3 protein zeta (14-3-3ζ) (from UniProt P63104 1-245) (natural protein)” showed an FRAP mobile fractions in PKA-Tau:14-3-3ζ condensates in assay [1] of 50%. For the same substance, the Kd (commonly the constant that tells how readily two partners part at equilibrium) in assay [2] stood at 1 µM.
